The source of these data is article PMC10341550 (2023).

For orientation: Kd means the constant that tells how readily two partners part at equilibrium. A high value points to a looser complex.

In the test the target is ROCK2 (Homo sapiens, UniProt O75116). Description: competition fluorescence polarization. (In general: In fluorescence polarisation assays a small probe gives low polarisation when free and higher when bound to something large.)
Sequence of ROCK2 (O75116 whole entry): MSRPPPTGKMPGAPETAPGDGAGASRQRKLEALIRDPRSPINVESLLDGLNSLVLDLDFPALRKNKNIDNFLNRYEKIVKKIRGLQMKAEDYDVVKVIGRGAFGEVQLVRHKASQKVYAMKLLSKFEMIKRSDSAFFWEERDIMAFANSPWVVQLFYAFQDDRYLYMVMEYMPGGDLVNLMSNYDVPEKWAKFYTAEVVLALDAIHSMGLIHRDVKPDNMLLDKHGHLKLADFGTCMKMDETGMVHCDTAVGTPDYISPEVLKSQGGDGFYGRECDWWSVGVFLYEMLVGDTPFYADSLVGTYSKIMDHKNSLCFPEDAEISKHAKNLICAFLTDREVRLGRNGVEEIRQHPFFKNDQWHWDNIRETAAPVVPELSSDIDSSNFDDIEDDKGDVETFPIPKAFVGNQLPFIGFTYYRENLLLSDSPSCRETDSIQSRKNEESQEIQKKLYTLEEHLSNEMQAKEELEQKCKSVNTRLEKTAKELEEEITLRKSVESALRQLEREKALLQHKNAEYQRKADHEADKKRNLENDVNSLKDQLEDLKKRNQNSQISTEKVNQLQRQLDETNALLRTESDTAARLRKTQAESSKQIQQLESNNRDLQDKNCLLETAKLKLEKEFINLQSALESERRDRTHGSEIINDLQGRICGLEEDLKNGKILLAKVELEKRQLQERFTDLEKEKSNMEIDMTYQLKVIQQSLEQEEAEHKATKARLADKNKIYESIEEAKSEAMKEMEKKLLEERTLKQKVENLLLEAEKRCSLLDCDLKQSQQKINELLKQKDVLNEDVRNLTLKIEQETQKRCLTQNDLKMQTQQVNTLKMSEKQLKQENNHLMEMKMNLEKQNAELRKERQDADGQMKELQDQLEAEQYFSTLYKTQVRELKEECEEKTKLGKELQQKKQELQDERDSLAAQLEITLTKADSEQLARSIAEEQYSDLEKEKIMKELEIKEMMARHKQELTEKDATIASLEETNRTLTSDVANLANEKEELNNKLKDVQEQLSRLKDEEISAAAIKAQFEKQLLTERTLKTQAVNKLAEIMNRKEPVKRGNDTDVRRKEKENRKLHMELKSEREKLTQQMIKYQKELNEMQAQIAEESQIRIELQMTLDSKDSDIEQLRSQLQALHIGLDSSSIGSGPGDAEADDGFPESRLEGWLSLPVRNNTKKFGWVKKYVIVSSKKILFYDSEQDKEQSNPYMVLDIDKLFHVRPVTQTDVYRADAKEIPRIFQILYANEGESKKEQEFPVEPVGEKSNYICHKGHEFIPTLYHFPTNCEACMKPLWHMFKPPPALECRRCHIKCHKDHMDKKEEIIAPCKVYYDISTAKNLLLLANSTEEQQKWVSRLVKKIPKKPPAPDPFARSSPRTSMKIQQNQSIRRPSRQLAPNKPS

ADRGLTTRPGSGLTNIKTEEISEVKMDAEFRHDSGYEVHHQKLVFFAEDV (BACE1 C-terminal peptide present) [APP 646-695] showed a Kd of 3.5 nM.
